The text below walks through data of patent US20030199423A1.

In assay [1] the target is CD18-independent counterreceptor for ICAM-R on Jurkat cells. As to the kind of experiment: inhibition of Jurkat cell adhesion to coated soluble ICAM-R, peptide 1-2 mg/ml.
The target in assay [2] is T1, soluble human ICAM-R (human), P32942.
T1 chain: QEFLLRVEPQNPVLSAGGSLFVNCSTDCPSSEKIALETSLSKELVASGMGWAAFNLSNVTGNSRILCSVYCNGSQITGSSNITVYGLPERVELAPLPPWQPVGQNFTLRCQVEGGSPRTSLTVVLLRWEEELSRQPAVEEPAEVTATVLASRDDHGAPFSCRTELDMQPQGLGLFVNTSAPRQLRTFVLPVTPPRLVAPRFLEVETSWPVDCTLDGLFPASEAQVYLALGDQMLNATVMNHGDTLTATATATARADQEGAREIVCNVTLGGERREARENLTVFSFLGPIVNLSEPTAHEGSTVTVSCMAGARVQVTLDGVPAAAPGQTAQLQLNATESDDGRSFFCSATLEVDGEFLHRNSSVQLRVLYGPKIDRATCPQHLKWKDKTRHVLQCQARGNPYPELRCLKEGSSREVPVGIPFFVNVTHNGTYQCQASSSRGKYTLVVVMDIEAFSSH
Kind of assay: ELISA on coated baculovirus soluble ICAM-R.

Assay [3] has the same target. As to the kind of experiment: blocking of biotinylated murine ICR-8.1 binding to ICAM-R; competitor murine ICR-8.1.

Turning to GERREA [ICAM-R peptide, residues 271-276], in assay [1], the % Inhibition is 11%.

In turn, EKIALET [ICAM-R peptide, residues 32-38] returned a % Inhibition in assay [1] of 10%.

Take DGQST [ICAM-1 peptide (DGQST), residues 70-74]: in assay [1], the % Inhibition was found to be 9%.

B1: recombinant ICR-8.1 antibody miHuVHI/MuVK (antibody)
chain 1: QIQLVQSGAEVKKPGASVKVSCKASGYTFTDCIILWVRQAPGQGLEWMGKINPYFGTTTYAQKFQGRVTITADTSTSTAYMELSSLRSEDTAVYYCARKEAYPDAMDYWGQGTLVTVSS
chain 2: DAVMTQTPLSLPVSLGDQASISCRSSQSLVHSNGDTYLHWYLQKPGQSPQLLIYKVSNRFSGVPDRFSGSGSGTDFTLKLSRVEAEDLGVYFCSQSTHVPYTFGGGTKLEIK
modifications: not checked
Regarding B1, the fold improvement in binding over the other recombinant ICR-8.1 antibodies in assay [2] came out at 2 fold. For the same molecule, the fold less well competing than murine ICR-8.1 in assay [3] is 2 fold.

On to NGSQI [ICAM-R domain 1 peptide (NGSQI), residues 72-76], for which the % Inhibition in assay [1] was 17%.

Turning to GDQML [ICAM-R domain 3 peptide (GDQML), residues 230-234], the % Inhibition in assay [1] turned out to be 36%.

In turn, GDQRL [ICAM-1 peptide (GDQRL), residues 228-232] gave a % Inhibition in assay [1] of 22%.
